From the nanobody polyreactivity screen of Harvey et al. (2022)

Assay: yeast display, Sf9 membrane polyspecificity reagent, FACS + sequencing; frameworks hold sequencing errors
Summary of the method: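 Sorting gates, low and high (top ~1%), were placed on anti-HA fluorescence to track expression and on streptavidin fluorescence to track reagent binding. A clone's polyreactivity label is taken from the gate it came out of. The reagent was 10% biotinylated, detergent-solubilized Sf9 membrane, applied for 1 hour at 4 °C to galactose-induced yeast display cells.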

## QVQLVESGGGLVQAGGSLRLSCAPSGSIFGGYAMGWYRQAPGKERELVAAITWGGGSTYYADSVKGRFTISRDNAKNTVYLQMISLKPEATAVYYCAADRSWYDWEDDYWGQGTQVTVSS
  polyreactivity (PSR sort gate): low polyreactivity

## QVQLVESGAGLVQAGGSLRLSCAPSGSTFEDYAMGWYRQAPGKERELVAAISHIGGSTYYADSVKGRFTISRDNAKNTVYLQMNSLKPEDTAVYYCAKGGFSSKFDYWGQGTQVTVSS
  polyreactivity (PSR sort gate): low polyreactivity

## QVQLVESGGGLVQAGGSLRLSCAASGIIFFDYAMGWYRQAPGKERELVAAITGSGGRTYYADSVKGRFTISRDNAKNTVYLQMNSLKPEDTAVYYCAAARYYYGGDYWGQGTQVTVST
  polyreactivity (PSR sort gate): high polyreactivity

## QVQLVESGGGLVQAGGSLRLSCAASGSIFRFYAMGWYIQAPGKERELVAAIRFSGGNTYYADSVKGRFTISCDNAKNTVYLQMNSLKPEDTAVYYCAKYRRVKPKRYDYDYWGQGTQVTVSS
  polyreactivity (PSR sort gate): high polyreactivity

## QVQLVESGGGLVQAGGSLRLSCAASGRTFWPYAMGWYRQAPGKERELLAAITSDGSTTYADSVKGRFTISRDNAKNTVYLQMNSLTPEDTAVYYCAAYGYYYYQTIPMDYWGQGTQVTVSS
  polyreactivity (PSR sort gate): low polyreactivity

## QVQIVESGGGLVQAGGSLRLSCAASGRIFRVNWIGWYRQAPGKESELVAAIRRSGGSTYYADSVKGRFTISRDNAKNTVYLQMNSLKPEDTAVYFCAAPVRQSSYTRYDSWGQGTQVTVSS
  polyreactivity (PSR sort gate): high polyreactivity

## QVQLVESGGGLVQAGGSLRLSCAASGSTFRGYAMGWYRQAPGKERELVAAITYISDSTYYADSVKGRFTLSRDNAKNTVYLQMNSLKPEDTAVYYCNAYYDGDWRYTSQETGDHWGQGTQVTVSS
  polyreactivity (PSR sort gate): low polyreactivity

## QVQLVESGGGLVQAGGSLRLSCAASGSIFLRYAMGWYRQAPGKERELVAAISLSGGNTYYADSVKGRFTISRDNSKNTVYLQMNSLKPEDTAVYYCAATRTKRKFDYWGQGTQVTVSS
  polyreactivity (PSR sort gate): high polyreactivity

## QVQLVESGVGLVQAGGSLRLSCAASGRTFYVYAMGWNIQAPGKERELVAAISWGRGSTYYADSVKGRFTNSRDYAKNTVYLQMNSLQPEDTAVYYCADDKTRYRLGRDYWGQGTQVTVSS
  polyreactivity (PSR sort gate): low polyreactivity

## QVQLVESGGGLVQAGGSLRLSCAPSGRTFSVNDMGWYRQAPGKERELVAAISFSGGSTYYADSVKGRFTISRDNAKNTVYLQMNSLKPEDTAVYYCAAEAYPSWFYVITGFGIYDYWGQGTQVTVSS
  polyreactivity (PSR sort gate): high polyreactivity

## QVQLVESGRGLVQAGGSLRLSCADSGYIFWYYAMGWYRQAPGKERELVATITVSAGTTYFADSVKGRFTISRDNAKNTVYLQMNSLKPEDTAVYYCNKRSALSFVYDFDYWGQGTQVTVSS
  polyreactivity (PSR sort gate): low polyreactivity

## QVQLVESGGGLVQAGGSLRLSCAASGRTFRYYVMGWYRQAPGKERELVAGISGSGGNTYYADSVKGRFTISRDNAKNTVYLQMNSLKPEDTAVYYCAARQRGSVGVPYNSWGQGTQVTVSW
  polyreactivity (PSR sort gate): high polyreactivity

## QVQLVESGGGLVQAGGSLRLSCAASGRTFKYYAMGWYRQAPGKERELVAAISNGGRTNYADSVKGRFTISRDNAKNTVYLQMNSLKPEDTAVYYCAKRSFYFSDYDYWGQGTQVTVSS
  polyreactivity (PSR sort gate): high polyreactivity

## QVQLVESGGGLVHAGGSLRLSCAASGFILRSYGMGWYRQAPGKERELVAAITRGGSTYYADSVKGRFTISRDNAKNTVYLQMNSLKPEDTAVYYCAARTRYYSQQFDYWGQGTQVTVSS
  polyreactivity (PSR sort gate): high polyreactivity

## QVQLVESGGGLVQAGGSLRLSCAASGFTFRVYAMGWYRQAPGKERELVAAITSGSSTTYADSVKGRFTISRDNAKNTVYLQLNSLKPEDTAVYYCNARRRGRVTGSYGYWGQGTQVTVSS
  polyreactivity (PSR sort gate): high polyreactivity

## QVQLVESGGGLVQAGGSLRLSCAASVSIFIYYAMGWYRQAQGKERELVAAISYSDGDTYYADSVKGRFTISRDNAKNTVYLQMNSLKPEDTAVYYCAAEVPQYYDVGWEDYCGQGTQVTVSS
  polyreactivity (PSR sort gate): high polyreactivity

## QVQLVESGGGLVQAGGSLRLSCAASGSIIRGYTMGWYRQAPGKERELVADITQSTGSTYYADSVKGRFTISRDTAKNTVYFQMNSLKPEDTAVYYCAAVEGWYLFTSNYWGQGTQVNVSS
  polyreactivity (PSR sort gate): low polyreactivity

## QVQLVESGGGLVQAGGSLRLSCAASGFTFYYYTMGWYRQAPGKERELVAVITLSDGSTNYADSVKGRFTISRDNAKNTVYLQMNSLKPEDTAVYYCDAKYVDYGYHGYDYWGQGTQVTVSS
  polyreactivity (PSR sort gate): low polyreactivity

## QVQLVESGGGLVQAGGSLRLSCAASGRTFSSYAMGWYRQAPGKERELVADINRSGGSTYYADSVKGRFTISRDNAKNTVYLQMNSLKPEDTAVYYCNVRIWPWYGYDYWGQGTQVTVSS
  polyreactivity (PSR sort gate): low polyreactivity

## QVQLVESGGGLVQAGGSLRLSCAASGRIFRGYAMGWYRQAPGKERELVAAISGSGGSTYYADSVKGRFTISRDNAKNTVYLQMNSLKPEDTAVYYCAADQQSTGDWAGDYWGQGTQVTVSS
  polyreactivity (PSR sort gate): low polyreactivity

## QDQLVESGGGLVQAGGSLRLSCAASGSTFTSNAMGWYRQAPGKERELVAAISFSDASTYYADSVKGRFTISRDNAKKTVYLQMNSLKPEDTAVYYCNADYPTTAYDYCGQGTQVTVSS
  polyreactivity (PSR sort gate): low polyreactivity

## QVQLVESGGGLVQAGGSLRLSCAASGSTFDRYDMVWYRQAPGKETELVAAITRRGGSTYYADSVKGRFTFSRDNAKNTVYLQMNSLQPEDTAVYYCNAKHFAYSVAHPYLRYGYDYWGQGTHVTVSS
  polyreactivity (PSR sort gate): low polyreactivity

## QVQLVESGGGLVQAGGSLRLSCTASGNTFALYAMGWYRQAPGKERELVARISRRGGSTYYADSVKGRFTISRDNAKNTVYLQMNSLKPEDTAVYYCAKTHSYYPWEVNYWGQGTQVTVSS
  polyreactivity (PSR sort gate): high polyreactivity

## QVQLVESGGGLVQAGGSLRLSCAASGRIFYGNVMGWYRQAPGKERELVAAISGGGSTNYADSVKGRFTISRDNAKNTVYLQMNSLKPEDTAVFYCAADSRPWGSSMDYWGQGTKVTVSS
  polyreactivity (PSR sort gate): low polyreactivity

## QVQLVESGGGLVQAGGSLRLSCAASGSTFYRYAMGWYRQAPGKERELVAAITWSGGSTYYADSVKGRFTISRDNAKNTVYLQMNSLKPEDTAVYYCNAVARYYYKDQTIIHSPREDYWGQGTQVTVSS
  polyreactivity (PSR sort gate): low polyreactivity

## QVQLVESGGGLVQAGGSLRLSCAASGITFYFYAMGWYRQAPGKERELVAAITRGGRTNYADSVKGRFTISRDNAKNTVYLQMNSLKPEDTAVYYCNKRLYSYYPGKYVAEYDYWGQGTQVTVSS
  polyreactivity (PSR sort gate): high polyreactivity

## QVQLVESGGGLVQAGGSLRLSCAASGSTFPYNAMGCDRQAAGKERELVAAISFSGGITTYADSVKGRFTISRDNAKNTVYLQMNSLKPEDTAVYYCNVAYTLHFGYWGQGTQVTVSS
  polyreactivity (PSR sort gate): low polyreactivity

## QVQLVESGGGLVQAGGSLRLSCAASGFTFLGYAMGWYRKAPGKERELDASITYGGDSTYYADSVKARFTISRDNAKNTFYLEMISLKPEDTAVYYCNARPSYWWGGRLYGYWGQGSQVTVSS
  polyreactivity (PSR sort gate): high polyreactivity

## QVQLLESGRGLDQAGGSLRLSCAASGGTYKTNPMGMYRQAPGKEMELVAAITGSGTSTYYADSVKGRFTISRDYAKNTVYLQMNSLNPEDTAVYYCAADKLYHPGIGDDYWGQGTQETVSS
  polyreactivity (PSR sort gate): low polyreactivity

## QVQLVESGGGLVQAGGSLRLSCAASGFIFRRNAMGWYRQAPGKERELVAAITKSGGSTYYADSVKGRFTISRDNAKNTVYLQMNSLKPEDTAVYYCAASDASGGGYWGQGTQVTVSS
  polyreactivity (PSR sort gate): high polyreactivity

## QVQLEESGGGIVQAGGSLRLSCAASGRIFYHYAMGGYRKAPGKEREWVAAISGSGGSTYYADSVKGGFTISRYNAKNTVYLQMNSLNPEDTAVFYCSTSGPQYYARNFDYCGQGTQVTVSS
  polyreactivity (PSR sort gate): low polyreactivity

## QVQLVESGGGFVQAGGSLRLSCAASGFIFAVNAMGWYRQAPGKERELVAAISSSGTTNYADSVKGRFTISRDNAKNTVYLQMNSLKPEDTAVYYCNKRWRDKYPQYDYWGQGTQVTVSS
  polyreactivity (PSR sort gate): low polyreactivity
